Test: yeast display, Sf9 membrane polyspecificity reagent, FACS + sequencing; frameworks hold sequencing errors
How it was run: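 Galactose induction of a Saccharomyces cerevisiae BJ5465 synthetic nanobody display library ran 36–48 hours. The cells were then stained for 1 hour at 4 °C with 10% biotinylated, detergent-solubilized Sf9 membrane reagent, pulled down on streptavidin microbeads and FACS-sorted into low and high (top ~1%) gates on expression and reagent-binding fluorescence. Labels for polyreactivity follow the gate of origin.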

Row | Sequence | polyreactivity (PSR sort gate)
1 | QVQLVESGGGLVQAGGSLRLSCAASGSTFYYYAMGWSRPAPGKERELVAAISTRGGSTYYADSVKGRFTISRDNAKNTVYLQMNSLKPEDTAVYYCAKKYGYFGLHGYWGQGTQVTVSS | high polyreactivity
2 | QVQLVESGGGLVQAGGSLRLSCAASGSTFYYYAMGWSRQAPGKERELVAAITRGGSTYYADSVKGRFTISRDNAKNTVYLQMNSLRPEDTAVYYCAAKSAYHGLVGGYYYWGQGTQVTVSS | high polyreactivity
3 | QVQLVESGGGLVQAGGSLRLSCAASGSTFYYYAMGWYRQAPGKEREFVAAITWSGGSTYYADSVKGRFTISRDNAKNTVYLQMNSLKQEDTGVYYCAKDQRYYYYGGGDYWGQGTQLTVSS | low polyreactivity
4 | QVQLVESGGGLVQAGGSLRLSCAASGSTFYYYAMGWYRQAPGKERELVAAISKSGGSTYYADSVKGRFTISRDNAKNTVYLQMNSLKPEDTAVYYCAARGRYISDYWGQGTQVTVSS | high polyreactivity
5 | QVQLVESGGGLVQAGGSLRLSCAASGSTFYYYAMGWYRQAPGKERELVAAITYSGGGTYYADSVKGRFTISRDNAKNTVYLQMNSLKPEDTAVYYCAKTIAVNTWYYYWGQGTQVTVSS | low polyreactivity
6 | QVQLVESGGGLVQAGGSLRLSCAASGSTFYYYAMGWYRQAPGKERELVASISFSGGSTYYADSVKGRFTISRDNAKNTVYLQMNSLKPEDTAVYYCGYYYWGQGTQVTVSS | low polyreactivity
7 | QVQLVESGGGLVQAGGSLRLSCAASGSTFYYYAMGWYRQAPGKERELVASISSAGNTNYADSVKGRFTISRDNAKNTVYLQMNSLKPEDTAVYYCAARYSGHPRYYYYWGQGTQVTVSS | low polyreactivity
8 | QVQLVESGGGLVQAGGSLRLSCAASGSTFYYYAMGWYRQAPGKERELVATISSGSSTNYADSVKGRFTISRDNAKNTVYLQMNSLIPEDTAVYYCAADRWYINLYIDATISYDYWGQGTQVTVSS | low polyreactivity
9 | QVQLVESGGGLVQAGGSLRLSCAASGSTFYYYARGWYRQAPGKERELVAAISTSDGSTYYADSVKGRFTISRDNAKNTVYLQMNSLKPEDTAVYYCAADSYERFASYYYWGQGTQVTVSS | low polyreactivity
10 | QVQLVESGGGLVQAGGSLRLSCAASGSTFYYYTMGWYRQAPGKERELVAISWDGDSTYSADSVKGRFTISRDNAKNTVYLQMNSLKPEDTAVYYCAAADYYLPDDVSDYVDANFDYWGQGTQVTVSS | low polyreactivity
11 | QVQLVESGGGLVQAGGSLRLSCAASGSTGVNTMGWYRQAPGKERELVAAIRATGGSTYYADSVKGRFTISRDNAKNTVYLQMNSLKPEDTAVYYCAARYYRSQYWYDDSWGQGTQVTVSS | high polyreactivity
12 | QVQLVESGGGLVQAGGSLRLSCAASGSTIAYYTMGWYRQAPGKERELVAAISASGGSTYYADSVKGRFTISRDNAKNTFYIQMNSLKPEDTAVYYCNAESYLTGWWVDYWGQGTQVTVSS | low polyreactivity
13 | QVQLVESGGGLVQAGGSLRLSCAASGSTIDGNAMGWYRQAPGKERELVAAITSGGSTNYADSVKGRFTISRDNAKNTVYLQMNSLKPEDTAVYYCAADTVSFSILYDYWGQGTQVTVSS | low polyreactivity
14 | QVQLVESGGGLVQAGGSLRLSCAASGSTIDKYAMGWYRQAPGKERELVAAIRKSGGRTYYADSVKGRFTISRDNAKHTVYLQMYSLKQEDTAVYYCAAVLPNYYSVRYGYWGQGTQVSVSS | high polyreactivity
15 | QVQLVESGGGLVQAGGSLRLSCAASGSTIDYYAMGWYRQARGKERELVAAISWSGGSTYYADSVKGRFTISRDNAKNTVYLQMNSLKPEDTAVYYCAADSAFYTGSYYGWSDYDYWGQGTQVTVSS | low polyreactivity
16 | QVQLVESGGGLVQAGGSLRLSCAASGSTIERYAMGWYRHAPGKERELVAAIRWSGGSTYYADSVKGRFTISRDNAKNTVYLQMNSLKPEDTAVYYCAASRSNADWFDSWGQGTQVTVSS | high polyreactivity
17 | QVQLVESGGGLVQAGGSLRLSCAASGSTIKYYAMGWYRPAPGKERELVAAISKGATRTYYADSVKGRFTISRDHAKNTVYLQMNSLKPEDTAVYFCAADRLKFPCEYDYWGHGTQVTVSS | high polyreactivity
18 | QVQLVESGGGLVQAGGSLRLSCAASGSTINQYAMGWYRQAPGKERELVAAITRRGGSTYYADSVKGRFTISRDNAKNTVYLQMNSLKPEDTAVYYCAAAYPYTTVSYDYWGQGTQVTVSS | high polyreactivity
19 | QVQLVESGGGLVQAGGSLRLSCAASGSTINYNAMGWYRQAPGKERELVAAIDSGVSTNYADSVKGRFTISRDNAKNTVYFQMNSLKPEDTAVYYCNADPDYFDYWGQGTQVTVSS | low polyreactivity
20 | QVQLVESGGGLVQAGGSLRLSCAASGSTIPLYAMGWYRQAPGKERELVAAISRRGGRTYYADSVKGRFTISRDNAKNSVYLQMNSLKPEDTGVYYCAARYTRRHYDYWGQGTKVTVSS | high polyreactivity
21 | QVQLVESGGGLVQAGGSLRLSCAASGSTIPSYAMGWYRQATGKERELVASITYSDGTTRYADSVKGRFTISRDYAKNTVYFQMYSLKPEDTAVYYCNAVYYREGMDYWGQGTQVSVSS | low polyreactivity
22 | QVQLVESGGGLVQAGGSLRLSCAASGSTIPYYAMGWYRQAPGKERELVATISSSGGSTYYADSVKGRFTISRDNAKNTVYLQMKSLKPEDTAVYYCAARYQTSGFRYRYGYWGQGTQVTVSS | high polyreactivity

Row | Sequence | polyreactivity (PSR sort gate)
23 | QVQLVESGGGLVQAGGSLRLSCAASGSTIQSNMGWYRQAPGKERELVAAITTNGSSTYYADSVKGRFTISRDNAKNTVYLQMNCLKPEDTAVYDCAAGPRYRYYYGWYDYWGQGTQVNVSS | high polyreactivity
24 | QVQLVESGGGLVQAGGSLRLSCAASGSTIRGYAMGWYRQAPGKEREFVAAITVNGGNTYYADSVKGRFTISRDNAKNTVYLQMNSLKPEDTAVYYCNVPVTVGKDSITEHYYWGLGTQVTVSS | low polyreactivity
25 | QVQLVESGGGLVQAGGSLRLSCAASGSTIRGYARGWYRQAPGKEREFVAAITVNGGNTYYAESVKGRFTLSRDNAKNTVYLQMNSLKPEDTEGYYCNVPVTVVKASITEHYYWGQGTQVTVSS | low polyreactivity
26 | QVQLVESGGGLVQAGGSLRLSCAASGSTIRLYAMGWYRQAPGKERELVAAISVSGGSTHYADSVKGRFTISRDNAKNTVYLQMNSLKPEDTAVYYCNAAGNPVSRYHYDYWGQGTQVTVSS | high polyreactivity
27 | QVQLVESGGGLVQAGGSLRLSCAASGSTISGYAMGWYRQAPGKERELVAAISSGGSTYYADSVKGRFTISRDNAKNTVYLQLNSLKPEDTAVFYCNVARSRYRYRYDYWGQGTQVTVSS | high polyreactivity
28 | QVQLVESGGGLVQAGGSLRLSCAASGSTISSNAMGWYRQAPGKERELVAAIDSGGSTYYADSVKGRFTISRDNAKNTVYLQMNSLKPEDTAVYYCNPERETYDTGRAVLPGGYWGQGTQVTVSS | low polyreactivity
29 | QVQLVESGGGLVQAGGSLRLSCAASGSTISYNAMGWYRQAPGKERELVAAIRTSGGRTYYADSVKGRFTISRDNAKNTVYLQMNSLKPEDTAVYYCAKRWVYRYGYEYWGQGTQVTVSS | high polyreactivity
30 | QVQLVESGGGLVQAGGSLRLSCAASGSTITGNTMGWYRQAPGKERELVAAITNGGSTYYADSVKGRFTISRDNAKNTVYLQMNSLKPEDTAVYYCAAESTFYGYDYWGQGTQVTVSS | high polyreactivity
31 | QVQLVESGGGLVQAGGSLRLSCAASGSTITVNDMGWYRQAPGKERELVAAITQRDGRTFYADSVKGRFTISRDNAKNTVYLQMNSLKPVDTSVYYFAADYVWYTYGDYDYWGLGTQVTVSS | low polyreactivity
32 | QVQLVESGGGLVQAGGSLRLSCAASGSTIVNNAMGWYIQAPGKERELVAAIRSSDGRTYYADSVKGRFTISRDNAKNTVYLQMNSLKPEDTAVYYCNRRYRKYSSAKYDYWGQGTQVTVSS | high polyreactivity
33 | QVQLVESGGGLVQAGGSLRLSCAASGSTIVYYAMGWYRQAPGKERELVAAISGSGGSTYYADSVKGRFTISRDNAKNTVYLQMNSLKPEDTAVYYCAKSYGSHRKIRTSFGYWGQGTQVTVSS | high polyreactivity
34 | QVQLVESGGGLVQAGGSLRLSCAASGSTIWFYVMGWYRQAPGKERELVATIRWSTSSTYADSVKGRFTISRDNAMNTVYLQMNILKPEDTAVYYCNAQYSQVNGYDYWGQGTQVTVSS | low polyreactivity
35 | QVQLVESGGGLVQAGGSLRLSCAASGSTIYDNAMGWYRQATGKESELVAAITWSVGRTYYADSVKGRFTISRDNAKNTVYLQMNSMKPEDTAVYYCAARSQDRTYFQVFVSDTPYNYWGQGTQVTVSS | low polyreactivity
36 | QVQLVESGGGLVQAGGSLRLSCAASGSTIYFNAMGRYRQAPGKERELAAGIRSSGGSTYYADSVKGRFTISRDNAKNTVYLQMISLKPEDTAVYYCAGVRYRELYWGQGTQVTVSS | high polyreactivity
37 | QVQLVESGGGLVQAGGSLRLSCAASGSTIYGYAMGWYRQAPGKERELVAAISISGGGTYYADSVKGRFTISRDNAKNTVYLQMNSLKPEDTAVYYCARRYFWGQGTQVTVSS | low polyreactivity
38 | QVQLVESGGGLVQAGGSLRLSCAASGSTIYGYGMGWYRQAPGKERELVAAITGSGDTTYYADSVKGRFTISRDNAKNNVYLQMNSLKPEDTAVYYCNARWHAEYDYWGQGTQVTVSS | low polyreactivity
39 | QVQLVESGGGLVQAGGSLRLSCAASGSTIYLYAMGWYRQAPGKERELVAAIRGRGGRTYYADSVKGRFTISRDNAKNTVYLQMNSLKPEDTAVDYCNADVYAYYRATTRFDYWGQGTQVTVSS | high polyreactivity
40 | QVQLVESGGGLVQAGGSLRLSCAASGSTIYRYAMGWNRQAPGKERELVATISRTGARTNYADSVKGRFTISRDNAKNTVYLQMNSLKPEDTAVYYCAASAPYIYYWGQGTQVTVSS | high polyreactivity
41 | QVQLVESGGGLVQAGGSLRLSCAASGSTIYTYAMGWYRPAPGKERELVAAISYRAGSTYYADSVKGRFTISRDNAKTSVYFQMNSLTPEDTAVYYCNVDGVVVGTKRGGYDYWGQGTQVTVSS | low polyreactivity
42 | QVQLVESGGGLVQAGGSLRLSCAASGSTLAPYVMGWYIQAPGKERELVAVISTRTGRTYYAVSVKGRFTISRDNAKNTVYLQMNSLKPEDTAVYYCAAAYGWSWYRYDYWGQGTQVTVSS | high polyreactivity
43 | QVQLVESGGGLVQAGGSLRLSCAASGSTLARYAMGWYRQAPGKERELVAAISSDGRTYYADSVKGRYTISRDNAKNTVYLQIYSLKPEDTAVYYCATLRPYAYPQYDSWGQGTQVTVSS | high polyreactivity

From the nanobody polyreactivity screen of Harvey et al. (2022)
